{"source": "patent US9371393B2", "about": "“Class I anti-CEA antibodies and uses thereof” (Immunomedics, Inc., priority 2009, dated 2016)", "molecules": {"B1": {"name": "cMN-15: murine MN-15 variable regions (SEQ ID NO:9, SEQ ID NO:10) attached to human IgG1 constant regions (antibody, listed as Mus sp., V domains shown)", "VL": "DIQLTQSPAIMSASPGEKVTMTCSASSRVSYIHWYQQKSGTSPKRWIYGTSTLASGVPARFSGSGSGTSYSLTISSMEAEDAATYYCQQWSYNPPTFGAGTKLELKR", "VH": "EVRLVESGGGLVQGPGSLRLSCAASGFALTDYYMSWVRQSPGKTLEWLGFIANKANGHTTDYSPSVKGRFTISRDNSQTILYLQMNTLRTEDSATYYCARDMGIRWNFDVWGQGTTVTVSS", "modifications": "human IgG1 constant regions"}, "B2": {"name": "hMN-15: humanized MN-15, VK SEQ ID NO:7 and VH SEQ ID NO:8, REI/KOL frameworks, human IgG1 (antibody, V domains shown)", "VH": "QVQLVESGGGVVQPGRSLRLSCSSSGFALTDYYMSWVRQAPGKGLEWLGFIANKANGHTTDYSPSVKGRFTISRDNSKNTLFLQMDSLRPEDTGVYFCARDMGIRWNFDVWGQGTPVTVSS", "VL": "DIQLTQSPSSLSASVGDRVTMTCSASSRVSYIHWYQQKPGKAPKRWIYGTSTLASGVPARFSGSGSGTDFTFTISSLQPEDIATYYCQQWSYNPPTFGQGTKVEIKR", "modifications": "human IgG1 constant regions"}}, "key": {"[1]": {"system": "SUM1315 breast cancer model", "assay": "hMN-15 pretreatment and CPT-11 in SUM1315 breast cancer model", "format": "in vivo", "details": "single agent; dosages as in Example 5", "description": "The effects of pre-treatment with naked hMN-15 CEA Mab given 3 days prior to CPT-11 treatment is examined in a SUM1315 breast cancer model (Kuperwasser et al., Cancer Res. 2005, 65:6130-38). CPT-11 alone, hMN-15 alone, and combination therapy of hMN-15+CPT-11 where the hMN-15 is administered 3 days prior to the CPT-11 are compared. Dosages are as indicated in Example 5. hMN-15 alone increases median survival time by 21% under these conditions. CPT 11 alone increases survival by 76%. By contrast, the combination therapy where hMN-15 is administered 3 days prior to CPT-11 produces a median survival time increase of an additional 58% above CPT-11 alone. […] The synergistic effect of hMN-15 antibody with CPT-11 therapy is surprising."}, "[2]": {"system": "RII and RI isoforms of PKA", "details": "Gold 2006; Stokka et al. 2006; cited from earlier work"}, "CEA": {"biological_target": "T1, CEA (Homo sapiens, UniProt P06731)", "T1 sequence (P06731 35-676)": "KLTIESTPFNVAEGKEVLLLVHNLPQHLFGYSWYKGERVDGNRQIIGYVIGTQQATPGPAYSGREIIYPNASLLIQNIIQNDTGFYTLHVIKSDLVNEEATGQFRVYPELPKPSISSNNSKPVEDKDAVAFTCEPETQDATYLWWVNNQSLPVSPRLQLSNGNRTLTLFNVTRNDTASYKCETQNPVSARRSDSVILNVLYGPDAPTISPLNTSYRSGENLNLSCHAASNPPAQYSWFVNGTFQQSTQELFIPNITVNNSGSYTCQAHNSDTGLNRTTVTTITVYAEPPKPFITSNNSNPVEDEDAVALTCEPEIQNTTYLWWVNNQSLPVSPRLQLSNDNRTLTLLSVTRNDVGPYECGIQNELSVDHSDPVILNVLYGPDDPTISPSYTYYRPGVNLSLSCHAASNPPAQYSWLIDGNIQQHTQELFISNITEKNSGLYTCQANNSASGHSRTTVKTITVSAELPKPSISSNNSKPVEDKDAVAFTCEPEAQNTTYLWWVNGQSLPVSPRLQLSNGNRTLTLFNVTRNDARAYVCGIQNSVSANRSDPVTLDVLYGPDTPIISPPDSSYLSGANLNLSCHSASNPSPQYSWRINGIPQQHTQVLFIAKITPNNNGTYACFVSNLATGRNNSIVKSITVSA", "assay": "Competitive CEA binding against HRP-labeled murine MN-15", "details": "competition with HRP-labeled murine MN-15", "excerpt": "To make a chimeric MN-15 antibody, the murine MN-15 variable region sequences were attached to human IgG1 constant region sequences, as described in Leung et al., Hybridoma 13:469 (1994). The sequences of the murine MN-15 VK (SEQ ID NO:9) and MN-15 VH (SEQ ID NO:10) used to construct the chimeric MN-15 (cMN-15) are shown in FIG. 2 and FIG. 3."}, "[3]": {"system": "liver metastases of sigmoid colon cancer", "assay": "Sigmoid colon cancer therapy with hMN-15 and GM-CSF, patient two", "format": "in vivo, human", "parameters": "blood CEA titer / CEA titer: unit not given here", "description": "patient two is a person who is refractive to chemotherapy with 5-fluorouracil and leucovorin to reduce their metastases to the liver found at the time of removal of their sigmoid colon cancer. […] Other radiological studies appear to be normal. Immunotherapy with humanized anti-CEA IgG (hMN-15) monoclonal antibody is begun on a weekly basis for 4 weeks, at an intravenous dose of 300 mg/m^2 infused over 2 hours. One week prior to hMN-15 therapy, the patient receives 2 subcutaneous injections of 200 μg/m^2 GM-CSF, 3 days apart, and continued twice weekly during the 4 weeks of hMN-15 therapy. After these four weeks, both hMN-15 and GM-CSF are given at the same doses every other week for an additional 3 months, but the dose of GM-CSF is increased to 250 μg/m^2. Prior to each administration of the humanized anti-CEA antibody, the patient is given diphenhydramine (50 mg orally), and acetaminophen (500 mg orally)."}, "[4]": {"system": "liver and lung metastases of colon cancer", "assay": "Combined immunotherapy and chemotherapy of metastatic colon cancer, patient one", "format": "in vivo, human", "parameters": "blood CEA titer: unit not given here", "description": "patient one is a person presenting with liver and lung metastases of colon cancer following resection of the primary tumor. They are placed on a combined chemotherapy and immunotherapy protocol based on the Gramont schedule (de Gramont et al., J Clin Oncol. 2000, 18:2938-47), but with the addition of humanized anti-CEA monoclonal antibody IgG1 (hMN-15). Prior to infusions of the antibody, they receive 50 mg orally of diphenhydramine and 500 mg orally of acetaminophen. They receive a 2-hr infusion of leucovorin (200 mg/m^2/day) followed by a bolus of 5-fluorouracil (400 mg/m^2/day) and 22-hour continuous infusion of 5-fluorouracil (600 mg/m^2/day) for 2 consecutive days every 2 weeks, together with oxaliplatin at 85 mg/m^2 as a 2-hr infusion in 250 mol of dextrose 5%, concurrent with leukovorin on day 1 (FOLFOX4 schedule). The patient also receives anti-emetic prophylaxis with a 5-hydroxyltryptamine-3-receptor antagonist. One week prior to this 2-week chemotherapy cycle, hMN-15 monoclonal anti-CEA antibody is infused over 2 hrs at a dose of 200 mg/m^2, and repeated each week of the 2-week chemotherapy cycle, and every week thereafter for the next month with another chemotherapy cycle. Also, a subcutaneous dose of 5 μg/kg/day of G-CSF is administered once weekly beginning with the second chemotherapy cycle, and continued at this dose for the duration of immunotherapy with hMN-15 antibody, over the next 3 months.\nA total of 5 cycles of chemotherapy is performed with continued administration of hMN-15 antibody and filgrastim. Thereafter, hMN-15 and filgrastim therapy is given, at the same doses, every other week for the next 3 months, without chemotherapy. The patient is staged 2 months later, and their liver and lung metastases show shrinkage by computed tomography measurements of >80 percent of disease measured in the liver and lungs, as compared to the measurements made prior to therapy. […] They are followed over the next 6 months, and their disease appears to be stable, with no new lesions found and no increase in the disease remaining in the liver and lungs. […] The patient also experiences diarrhea, mucositis, nausea and vomiting during the chemotherapy cycles, but these are not excessive."}, "[5]": {"system": "TT human medullary thyroid cell line tumors", "assay": "hMN-15 and DTIC in TT medullary thyroid cancer xenografts", "format": "in vivo, nu/nu mice", "details": "at 7 weeks, DTIC 75 μg/dose, hMN-15 100 μg/dose", "method": "Tumors are propagated in female nu/nu mice (Taconic Farms, Germantown, N.Y.) at 6-8 weeks of age by s.c. injection of 2×10^8 washed TT cells, which is propagated in tissue culture. Antibodies are injected i.v., via the lateral tail vein, into the tumor-bearing animals. Tumor size is monitored by weekly measurements of the length, width, and depth of the tumor using a caliper. Tumor volume is calculated as the product of the three measurements.\nTo study whether naked hMN-15 can add to the efficacy of DTIC, TT bearing nude mice are given DTIC (75 μg/dose) in combination with a course of treatment of the unlabeled MAb. DTIC is administered for 3 consecutive days at 75 μg/dose as one course, beginning 2 days after s.c. injection of TT cells. hMN-15 MAb treatment is initiated 3 days prior to the first dose of DTIC, at 100 μg/dose/day for 5 days in the first two weeks, then twice weekly."}, "[6]": {"details": "hMN-15 with GM-CSF, restaging after another 2 months"}}, "data": [{"molecule": "CCc1c2c(nc3ccc(OC(=O)N4CCC(N5CCCCC5)CC4)cc13)-c1cc3c(c(=O)n1C2)COC(=O)[C@]3(O)CC", "note": "[CPT-11, irinotecan, reference compound]", "values": [{"measurement": "increase of median survival time", "setting": "[1]", "result": 76, "unit": "%"}]}, {"molecule": "DLIEEAASRIVDAVIEQVKAAGAY [Ht-31]", "values": [{"measurement": "selectivity / affinity for RII versus RI isoform of PKA", "setting": "[2]", "result": "greater affinity for the RII isoform of PKA"}]}, {"molecule": "FEELAWKIAKMIWSDVFQQC [PV-38]", "values": [{"measurement": "selectivity / affinity for RII versus RI isoform of PKA", "setting": "[2]", "result": "higher affinity for RI"}]}, {"molecule": "LEQYANQLADQIIKEATE [RIAD]", "values": [{"measurement": "selectivity / affinity for RII versus RI isoform of PKA", "setting": "[2]", "result": "higher affinity for RI"}]}, {"molecule": "QIEYVAKQIVDYAIHQA [SuperAKAP-IS]", "values": [{"measurement": "selectivity / affinity for RII versus RI isoform of PKA", "setting": "[2]", "result": "five order of magnitude higher selectivity for the RII isoform of PKA compared with the RI isoform"}]}, {"molecule": "B1", "values": [{"measurement": "affinity for CEA compared with parent murine MN-15", "setting": "CEA", "result": "virtually identical"}, {"measurement": "dissociation constant", "setting": "CEA", "result": "nanomolar range"}]}, {"molecule": "B2", "values": [{"measurement": "affinity for CEA compared with parent murine MN-15", "setting": "CEA", "result": "virtually identical"}, {"measurement": "dissociation constant", "setting": "CEA", "result": "nanomolar range"}, {"measurement": "decrease of sum of the diameters of the measurable tumors in the liver", "setting": "[3]; hMN-15 300 mg/m^2 with GM-CSF, first restaging", "result": 40, "unit": "%"}, {"measurement": "adverse reactions", "setting": "[3]; hMN-15 with GM-CSF", "result": "no adverse reactions to the therapy"}, {"measurement": "blood CEA titer", "setting": "[3]; hMN-15 with GM-CSF, first restaging, at presentation 34 ng/mol", "result": 18}, {"measurement": "CEA titer", "setting": "[3]; [6]", "result": 10}, {"measurement": "tumor decrease over the pre-therapy baseline", "setting": "[3]; [6]", "result": "> 65", "unit": "%"}, {"measurement": "shrinkage of liver and lung metastases by computed tomography", "setting": "[4]; hMN-15 200 mg/m^2 with FOLFOX4 schedule and G-CSF (filgrastim)", "result": "> 80", "unit": "%"}, {"measurement": "adverse events when only immunotherapy is administered", "setting": "[4]; hMN-15 and filgrastim without chemotherapy", "result": "does not experience any adverse events"}, {"measurement": "predominant toxicity", "setting": "[4]; hMN-15 with FOLFOX4 and filgrastim, during chemotherapy cycles", "result": "peripheral sensory neuropathy"}, {"measurement": "blood CEA titer", "setting": "[4]; hMN-15 with FOLFOX4 and filgrastim, pre-therapy level 63 ng/mol", "result": 9}, {"measurement": "increase of median survival time", "setting": "[1]", "result": 21, "unit": "%"}, {"measurement": "mice with no palpable tumor", "setting": "[5]; untreated 0/10", "result": "0/10"}, {"measurement": "mean tumor volume", "setting": "[5]; untreated 1.578+0.959", "result": "0.899+0.545 cm^3"}]}]}
